T1: IL-2R on human primary T cells (human, UniProt P01589 22-272; P14784 27-551; P31785 23-369)
T1 sequence (looked up) 1: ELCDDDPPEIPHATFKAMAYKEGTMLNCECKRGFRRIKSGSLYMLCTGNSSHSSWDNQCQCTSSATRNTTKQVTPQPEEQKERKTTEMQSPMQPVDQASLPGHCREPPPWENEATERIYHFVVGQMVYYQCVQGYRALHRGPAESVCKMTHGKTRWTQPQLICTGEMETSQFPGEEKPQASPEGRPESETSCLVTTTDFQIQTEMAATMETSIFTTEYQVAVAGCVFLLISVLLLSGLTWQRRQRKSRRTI
T1 sequence (looked up) 2: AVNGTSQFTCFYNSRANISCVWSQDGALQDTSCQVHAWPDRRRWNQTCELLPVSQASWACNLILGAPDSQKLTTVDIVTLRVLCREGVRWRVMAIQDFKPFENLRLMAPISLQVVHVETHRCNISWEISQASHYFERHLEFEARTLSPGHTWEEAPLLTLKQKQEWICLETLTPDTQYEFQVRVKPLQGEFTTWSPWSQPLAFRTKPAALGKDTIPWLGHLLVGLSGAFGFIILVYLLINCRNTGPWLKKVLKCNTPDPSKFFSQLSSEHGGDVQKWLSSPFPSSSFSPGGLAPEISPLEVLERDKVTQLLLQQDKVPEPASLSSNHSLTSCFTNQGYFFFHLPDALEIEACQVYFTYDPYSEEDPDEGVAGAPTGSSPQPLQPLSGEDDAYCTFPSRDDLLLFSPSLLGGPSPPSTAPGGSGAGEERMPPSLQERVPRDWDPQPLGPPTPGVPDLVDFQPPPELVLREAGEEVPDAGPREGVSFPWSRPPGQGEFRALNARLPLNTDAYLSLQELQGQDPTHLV
T1 sequence (looked up) 3: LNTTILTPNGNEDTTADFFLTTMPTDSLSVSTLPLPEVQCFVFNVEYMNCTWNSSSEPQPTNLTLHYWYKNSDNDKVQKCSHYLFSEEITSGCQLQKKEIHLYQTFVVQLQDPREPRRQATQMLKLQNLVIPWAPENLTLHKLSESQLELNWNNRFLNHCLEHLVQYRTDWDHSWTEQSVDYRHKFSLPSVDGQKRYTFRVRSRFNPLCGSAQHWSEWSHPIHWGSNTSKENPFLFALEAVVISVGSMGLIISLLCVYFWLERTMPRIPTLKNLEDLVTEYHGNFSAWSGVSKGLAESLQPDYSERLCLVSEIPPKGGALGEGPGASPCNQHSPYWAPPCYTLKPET

B1: SEQ ID NO 11 (ligand)
chain: APTSSSTKKTQLQLEHLRLDLEMILNGINNYKNPKLTRMLTFKFYMPKKATELKHLQCLEEELKPLEEVLNLAQSKNFHLRPRDLISNINVIVLELKGSETTFMCEYADETATIVEFLNRWITFSTSIISTLT
B2: SEQ ID NO 35 (ligand)
chain: APTSSSTKKTQLQLEHLLLDLQMILNGINNHKNPKLTRMLTFKFYMPKKATELKHLQCLEEELKPLEEVLNLAPSKNFHLRPRDLISDINVIVLELKGSETTFMCEYADETATIVEFLNRWITFSQSIISTLT
B3: SEQ ID NO 15 (ligand)
chain: APTSSSTKKTQLQLEHLLLDLQMILNGINNHKNPRLTRMLTFKFYMPKKATELKHLQCLEEELKPLEEVLRLAPSKNFHLRPRDLISNINVIVLELKGSETTFMCEYADETATIVEFLNRWITFSQSIISTLT
B4: SEQ ID NO 16 (ligand)
chain: APTSSSTKKTQLQLEHLRLDLEMILNGINNYKNPKLTRMLTFKFYMPKKATELKHLQCLEEELKPLEEVLNLAQSKNFHFDPRDVVSNINVFVLELKGSETTFMCEYADETATIVEFLNRWITFSQSIISTLT
B5: SEQ ID NO 13 (ligand)
chain: APTSSSTKKTQLQLEHLLLDLQMILNGINNHKNPRLTRMLTFKFYMPKKATELKHLQCLEEELKPLEEALRLAPSKNFHLRPRDLISDINVIVLELKGSETTFMCEYADETATIVEFLNRWITFSQSIISTLT
B6: SEQ ID NO 12 (ligand)
chain: APTSSSTKKTQLQLEHLRLDLEMILNGINNYKNPKLTRMLTFKFYMPKKATELKHLQCLEEELKPLEEVLNLAQSKNFHFDPRDVVSDINVFVLELKGSETTFMCEYADETATIVEFLNRWITFSTSIISTLT
B7: SEQ ID NO 21 (ligand)
chain: APTSSSTKKTQLQLEHLLLDLQMILNGINNHKNPKLTRMLTFKFYMPKKATELKHLQCLEEELKPLEEALNLAPSKNFHLRPRDLISNINVIVLELKGSETTFMCEYADETATIVEFLNRWITFSQSIISTLT
B8: SEQ ID NO 20 (ligand)
chain: APTSSSTKKTQLQLEHLLLDLQMILNGINNHKNPKLTRMLTFKFYMPKKATELKHLQCLEEELKPLEEALRLAPSKNFHLRPRDLISNINVIVLELKGSETTFMCEYADETATIVEFLNRWITFSQSIISTLT
B9: SEQ ID NO 17 (ligand)
chain: APTSSSTKKTQLQLEHLRLDLQMILNGINNYKNPKLTRMLTFKFYMPKKATELKHLQCLEEELKPLEEVLNLAQSKNFHFDPRDVVSNINVFVLELKGSETTFMCEYADETATIVEFLNRWITFSTSIISTLT
B10: SEQ ID NO 34 (ligand)
chain: APTSSSTKKTQLQLEHLLLDLQMILNGINNHKNPKLTRMLTFKFYMPKKATELKHLQCLEEELKPLEEVLNLAQSKNFHLRPRDLISDINVIVLELKGSETTFMCEYADETATIVEFLNRWITFSQSIISTLT
B11: SEQ ID NO 18 (ligand)
chain: APTSSSTKKTQLQLEHLLLDLQMILNGINNYKNPKLTRMLTFKFYMPKKATELKHLQCLEEELKPLEEVLNLAQSKNFHFDPRDVVSNINVFVLELKGSETTFMCEYADETATIVEFLNRWITFSQSIISTLT
B12: SEQ ID NO 14 (ligand)
chain: APTSSSTKKTQLQLEHLLLDLQMILNGINNHKNPRLTRMLTFKFYMPKKATELKHLQCLEEELKPLEEVLNLAPSKNFHLRPRDLISNINVIVLELKGSETTFMCEYADETATIVEFLNRWITFSQSIISTLT
B13: SEQ ID NO 37 (ligand)
chain: APTSSSTKKTQLQLEHLLLDLQMILNGINNHKNPKLTRMLTFKFYMPKKATELKHLQCLEEELKPLEEALRLAPSKNFHLRPRDLISDINVIVLELKGSETTFMCEYADETATIVEFLNRWITFSQSIISTLT
B14: SEQ ID NO 38 (ligand)
chain: APTSSSTKKTQLQLEHLLLDLQMILNGINNYKNPKLTRMLTFKFYMPKKATELKHLQCLEEELKPLEEALRLAPSKNFHLRPRDLISDINVIVLELKGSETTFMCEYADETATIVEFLNRWITFSQSIISTLT
B15: SEQ ID NO 39 (ligand)
chain: APTSSSTKKTQLQLEHLLLDLQMILNGINNYKNPKLTRMLTFKFYMPKKATELKHLQCLEEELKPLEEVLRLAQSKNFHLRPRDLISDINVIVLELKGSETTFMCEYADETATIVEFLNRWITFSQSIISTLT
B16: SEQ ID NO 36 (ligand)
chain: APTSSSTKKTQLQLEHLLLDLQMILNGINNHKNPKLTRMLTFKFYMPKKATELKHLQCLEEELKPLEEALNLAQSKNFHLRPRDLISDINVIVLELKGSETTFMCEYADETATIVEFLNRWITFSQSIISTLT
B17: SEQ ID NO 9 (ligand)
chain: APTSSSTKKTQLQLEHLLLDLQMILNGINNHKNPRLTRMLTFKFYMPKKATELKHLQCLEEELKPLEEALRLAPSKNFHLRPRDLISNINVIVLELKGSETTFMCEYADETATIVEFLNRWITFSQSIISTLT

The target of the test is T1, IL-2R on human primary T cells. The test is described as follows: cell-based or functional assay.
Consider B1, for which the “CD8 EC50 (nM), STAT5 phosphorylation” value amounted to 650 nM and the “Treg EC50 (nM), STAT5 phosphorylation” value was found to be 3.96 nM.
As for B2, the “CD4 conv EC50 (nM), STAT5 phosphorylation” value (shortened to “CD4 conv EC50 (nM)”) came to 7000 nM; the “CD8 EC50 (nM), STAT5 phosphorylation” value was 10000 nM; the “CD8 naïve EC50 (nM), STAT5 phosphorylation” value (from here on “CD8 naïve EC50 (nM)”) is 10000 nM; the “Treg EC50 (nM), STAT5 phosphorylation” value came out at 15.7 nM.
As to B3, the “CD4 conv EC50 (nM)” value came to 2.52 nM; the “CD8 EC50 (nM), STAT5 phosphorylation” value was 28.4 nM; the “CD8 naïve EC50 (nM)” value turned out to be 29.8 nM; the “Treg EC50 (nM), STAT5 phosphorylation” value was found to be 0.01 nM.
The like results for B4 were, in that order, 1.31 nM, 1.68 nM, 1.81 nM and 0.03 nM.
Take B5: the “CD4 conv EC50 (nM)” value is 4160 nM; the “CD8 EC50 (nM), STAT5 phosphorylation” value is 8650 nM; the “CD8 naïve EC50 (nM)” value is 8410 nM; the “Treg EC50 (nM), STAT5 phosphorylation” value came out at 0.65 nM.
Consider B6, for which the “CD8 EC50 (nM), STAT5 phosphorylation” value is 650 nM and the “Treg EC50 (nM), STAT5 phosphorylation” value stood at 200 nM.
On to B7, for which the “CD4 conv EC50 (nM)” value was 4.81 nM; the “CD8 EC50 (nM), STAT5 phosphorylation” value came out at 151 nM; the “CD8 naïve EC50 (nM)” value is 204 nM; the “Treg EC50 (nM), STAT5 phosphorylation” value came to 0.07 nM.
The like results for B8 were, in that order, 1.2 nM, 227 nM, 312 nM and 0.03 nM.
On to B9, for which the “CD4 conv EC50 (nM)” value was 1000 nM; the “CD8 EC50 (nM), STAT5 phosphorylation” value was 10000 nM; the “CD8 naïve EC50 (nM)” value is 10000 nM; the “Treg EC50 (nM), STAT5 phosphorylation” value worked out at 1000 nM.
As to B10, the “CD4 conv EC50 (nM)” value is 1000 nM; the “CD8 EC50 (nM), STAT5 phosphorylation” value is 1000 nM; the “CD8 naïve EC50 (nM)” value is 1000 nM; the “Treg EC50 (nM), STAT5 phosphorylation” value amounted to 2.44 nM.
As for B11, the “CD4 conv EC50 (nM)” value was 15.9 nM; the “CD8 EC50 (nM), STAT5 phosphorylation” value worked out at 23.5 nM; the “CD8 naïve EC50 (nM)” value is 21.1 nM; the “Treg EC50 (nM), STAT5 phosphorylation” value worked out at 0.08 nM.
The like results for B12 were, in that order, 29.1 nM, 372 nM, 444 nM and 0.29 nM.
Take B13: the “CD4 conv EC50 (nM)” value turned out to be 5500 nM; the “CD8 EC50 (nM), STAT5 phosphorylation” value is 10000 nM; the “CD8 naïve EC50 (nM)” value stood at 10000 nM; the “Treg EC50 (nM), STAT5 phosphorylation” value was 1.11 nM.
For the molecule B14, the “CD4 conv EC50 (nM)” value stood at 8880 nM; the “CD8 EC50 (nM), STAT5 phosphorylation” value stood at 10000 nM; the “CD8 naïve EC50 (nM)” value amounted to 10000 nM; the “Treg EC50 (nM), STAT5 phosphorylation” value worked out at 0.4 nM.
B15: the “CD4 conv EC50 (nM)” value is 5500 nM; the “CD8 EC50 (nM), STAT5 phosphorylation” value worked out at 10000 nM; the “CD8 naïve EC50 (nM)” value was found to be 10000 nM; the “Treg EC50 (nM), STAT5 phosphorylation” value worked out at 91.9 nM.
Consider B16, for which the “CD4 conv EC50 (nM)” value stood at 4000 nM; the “CD8 EC50 (nM), STAT5 phosphorylation” value worked out at 10000 nM; the “CD8 naïve EC50 (nM)” value amounted to 10000 nM; the “Treg EC50 (nM), STAT5 phosphorylation” value is 11.7 nM.
As to B17, the “CD4 conv EC50 (nM)” value worked out at 2.14 nM; the “CD8 EC50 (nM), STAT5 phosphorylation” value came out at 589 nM; the “CD8 naïve EC50 (nM)” value was 822 nM; the “Treg EC50 (nM), STAT5 phosphorylation” value worked out at 0.05 nM.
